Reference: paper PMC7672431, “NMR structure of a vestigial nuclease provides insight into the evolution of functional transitions in viral dsDNA packaging motors” (Nucleic Acids Research, 2020)

Columns and labels:
[1] = target: phi29 gp16 CTD (residues 223–332; C-terminal domain of the packaging ATPase) (bacteriophage phi29) (UniProt P11014); experiment: AUC; sedimentation velocity, 42 000 rpm, 30°C, c(s) distribution in SEDFIT; CTD-L at 25 and 55 μM, CTD at 30 and 85 μM
[2] = target: T1, gp16 CTD (C-terminal domain of DNA packaging ATPase) (bacteriophage phi29, UniProt P11014 223-332); experiment: fluorescence intensity titration; Fluorescence: 50 mM sodium phosphate pH 6.5, 200 mM NaCl, temperature not stated; NMR: same buffer plus 0.02% NaN3, 2 mM DSS, ~100 uM protein, 303 K; details: protein: recombinant, tags: His tag implied (pET30a NdeI/XhoI, Talon resin)
T1 sequence: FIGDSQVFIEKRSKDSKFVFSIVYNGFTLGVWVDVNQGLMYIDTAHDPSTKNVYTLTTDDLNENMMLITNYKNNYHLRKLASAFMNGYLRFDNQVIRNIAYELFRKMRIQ

[3] = target: the molecule itself; experiment: AUC; sedimentation velocity, 42 000 rpm, 30°C, c(s) distribution in SEDFIT; CTD-L at 25 and 55 μM, CTD at 30 and 85 μM
[4] = target: T2, phi29 DNA packaging ATPase gp16, full length, assembled as a pentameric ring in the packaging motor on procapsids (bacteriophage phi29), P11014; experiment: cryo-EM structure; NMR structure of the CTD fitted into a ∼5.2 Å cryoEM map of phi29 particles stalled during packaging with γ-S-ATP (map of ref. 25; CTD density 5-fold averaged); details: remark: other sources report otherwise
T2 chain: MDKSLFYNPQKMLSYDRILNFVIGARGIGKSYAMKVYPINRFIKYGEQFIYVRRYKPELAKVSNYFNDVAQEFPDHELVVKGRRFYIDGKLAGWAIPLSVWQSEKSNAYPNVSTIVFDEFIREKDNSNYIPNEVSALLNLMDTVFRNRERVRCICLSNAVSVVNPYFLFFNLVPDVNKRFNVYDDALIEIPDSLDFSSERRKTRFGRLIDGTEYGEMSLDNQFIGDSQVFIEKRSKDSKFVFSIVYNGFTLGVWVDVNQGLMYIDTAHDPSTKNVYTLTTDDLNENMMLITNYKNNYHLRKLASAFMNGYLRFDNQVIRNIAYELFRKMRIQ

Question: How did the percent dimers at 30 and 85 μM [1] turn out when “phi29 gp16 CTD (residues 223–332; C-terminal domain of the packaging ATPase) (from UniProt P11014 223-332) (domain or fragment)” was run?
Answer: 2%

B1: 22 bp dsDNA, 3'-fluorescein (dsDNA)
DNA 1: GGTATCATGTGAGGGTGGGGGC
DNA 2: GCCCCCACCCTCACATGATACC
Question: For B1, which Kd ([2]; label: 3' fluorescein (36FAM) on strand 1, blunt) is on record?
Answer: 3.1 µM

B2: pRNA A-helix mimic, 3'-fluorescein (structured_RNA)
RNA: UCAAUGGUACGGUACUUCCAUUGUCAUGUUUUUCAUGGCAAAAGUGCACGCUACUUUGAU
Question: For B2, which Kd ([2]; label: 3' fluorescein (36FAM), hairpin) is on record?
Answer: 3.2 µM

B3: phi29 gp16 CTD-L (residues 208–332; inter-domain linker and C-terminal domain of the packaging ATPase) (domain or fragment, bacteriophage phi29, UniProt P11014 208-332, looked up)
chain: LIDGTEYGEMSLDNQFIGDSQVFIEKRSKDSKFVFSIVYNGFTLGVWVDVNQGLMYIDTAHDPSTKNVYTLTTDDLNENMMLITNYKNNYHLRKLASAFMNGYLRFDNQVIRNIAYELFRKMRIQ
notes: DNA packaging ATPase gp16 of bacteriophage phi29 (332 amino acids), residues 208-332: inter-domain linker plus C-terminal domain; Cloned between NdeI and XhoI of pET30a, which would add a C-terminal His6 tag (surmised); Isotope-labelled for the NMR experiments; also called gp16 CTD-L (208–332); source: E. coli BL21(DE3), pET30a, purified (Talon resin, HiTrap Q HP)
Question: With B3 as the molecule, how does the “stoichiometry N” value [3] read?
Answer: 2

B4: phi29 DNA packaging ATPase gp16, full length, assembled as a pentameric ring in the packaging motor on procapsids, P11014 1-332 (enzyme)
chain: T2 chain
Question: Which stoichiometry N [4] does the source give for B4 here?
Answer: 5
